Laboratory results from the MegaScale stability set (Tsuboyama et al. 2023).

B1: EHEE_rd4_0726 (parent)
chain: DIEITTNGEEDAKRVIKELQKRNLEYHIEVHGNQWVIKVR

Variants of: B1
Assay: folding stability dG (cDNA display proteolysis); higher = more stable
Conditions: PBS, room temperature

Folding stability dG [kcal/mol] of substitutions, site by site:
E25: A 2.53, H 2.7, N 2.28, F 2.49, D 2.31, G 2.04, P 2.33, K 2.76, M 2.52, I 2.66, L 2.6
R22: W 2.65, L 2.88, I 1.54, C 2.62, P 0.049, Y 2.62, M 2.66, V 1.45, T 1.51, E 1.49, A 2.25, N 1.97, F 2.39, D 1.33, S 1.76, K 2.17, H 2.33, G 1.45, Q 2.45
E9: T 1.52, M 2.12, F 2.52, G 1.76, S 1.86, P 2.46, H 1.92, N 1.36, Y 2.78, D 1.5, L 2.36, W 3.31, I 2.48, R 2.19, A 2.26, Q 1.92, K 2.06, V 2.15
E10: G 1.77, L 2.15, D 2.25, C 2.43, Y 2.07, P 1.52, V 2.02, H 2.02, A 2.4, I 2.01, Q 2.16, T 1.93, K 2.14, N 1.93, F 2.05, W 2.21, M 2.05, S 1.95, R 2.18
Q20: F 1.68, S 1.9, I 2.77, A 2.11, E 2.68, V 2.4, M 2.4, R 2.56, L 2.39, G 1.48, T 2.17, D 2.29, N 2.22, K 2.49, Y 1.64, W 1.79, C 1.98, P -0.448, H 1.85
D11: T 2.05, M 2.59, I 2.03, S 2.3, R 1.99, Y 2.21, A 2.73, W 2.62, K 1.78, E 2.95, N 2.28, P 1.49, G 1.92, F 2.31, L 2.12, V 1.93, Q 2.63, H 2.52
N7: F 2.75, I 2.43, G 1.78, V 2.29, P 1.36, A 2.19, C 2.87, M 2.54, T 2.34, Y 3.03, S 2.26, D 2.4, L 2.47, R 2.25, E 2.41, K 2.1, Q 2.4, H 2.42, W 3.1
K21: D 2.3, A 2.54, S 2.3, E 2.44, M 2.51, N 2.21, G 1.86, T 1.91, R 2.75, P 0.042, W 2.04, H 2.02, Y 2.08, Q 2.23, V 1.91, L 2.65, F 2.25, I 2.19
A12: N 0.444, L 2.53, E -0.056, T 1.74, Q 0.813, Y 1.82, K 1.06, H 1.01, W 1.51, V 1.74, R 1.17, P -0.076, M 2.51, S 1.28, G 1.43, F 2.45, I 1.49
K13: G 1.76, W 3, Y 2.73, R 2.71, S 1.93, T 1.96, M 2.96, A 2.4, H 2.24, I 2.52, D 1.72, L 2.76, F 2.58, V 2.12, Q 2.52, N 2.32, E 1.97, C 2.59, P 0.028
E18: A 2.43, M 2.86, C 3.47, T 1.95, G 1.69, H 2.02, L 2.65, F 2.73, I 2.68, W 3.42, V 2.32, R 2.01, Q 2.19, D 1.84, K 1.81, N 1.86, P -0.054, Y 2.87, S 2.04
I16: Y 0.637, W 0.844, R 0.31, F 1.02, Q 0.929, T 1.25, E 1.34, A 1.54, L 1.83, S 0.705, N -0.729, V 1.94, H -0.379, G 0.895, M 2.04, K 0.043
G8: S 3.27, L 1.83, V 1.92, T 3.07, F 1.97, I 1.95, Q 1.84, R 2.33, H 2.1, D 2.64, M 1.69, A 1.91, C 2.33, E 1.77, N 3.23, P 0.219, Y 1.92, W 1.75, K 2.02
R14: Q 2, I 2.19, E 2.04, F 2.24, G 1.51, N 1.9, L 2.3, A 2.33, K 2.43, W 2.85, Y 2.2, T 1.84, S 1.82, H 1.83, C 2.57, P 1.04, M 2.27, D 1.59, V 2.04
V15: I 2.91, K 1.2, T 1.27, P -0.481, Q 0.871, G -0.213, R 0.981, S 0.278, W 2.41, C 2.29, L 2.2, E 0.404, A 1.38, H 1.23, Y 1.99, F 1.97, N 0.1, M 1.79
K17: G 1.97, I 2.46, M 2.64, H 2.26, A 2.74, E 2.49, T 2.15, D 2.06, R 2.7, V 2.29, N 2.05, P 0.05, Y 2.43, F 2.5, Q 2.46, W 2.36, S 2.31, L 2.74
N23: M 2.13, I 0.939, W 1.51, Q 2.18, G 3.26, E 1.66, T 1.2, R 2.43, A 2.03, K 2.42, L 1.77, V 1.09, C 1.79, Y 1.67, P 0.565, S 1.95, D 1.72, H 2.4, F 1.92
L19: A 0.721, H -0.603, F 1.38, I 1.56, C 1.59, Y 0.81, K -0.438, M 1.32, W 0.45, V 0.98, T -0.334
L24: R 1.65, H 1.13, N 0.681, I 2.46, A 1.7, M 2.19, G 0.458, V 2.19, Q 1.45, T 1.14, W 2.05, F 1.81, E 1.01, D 0.415, Y 1.89, P -0.114, S 1.04, K 1.67
